Experimental data reported in the supplement of paper PMC9732359.
± gives the uncertainty stated by the source.

Test: protein stability index of a GFP-peptide fusion (yeast GPS) (PSI 1-4); higher = more stable; sorted into four equal gates, so the index is relative within each strain
Procedure, shortened: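 Yeast carrying a pooled library were grown to mid-log phase in leucine-free medium. Each library plasmid expresses Cherry and has a tiled 17-residue yeast protein peptide fused downstream of GFP. Cells were sorted into four equal gates by GFP/Cherry ratio, and plasmids from each gate were PCR-amplified, Illumina-sequenced and assigned to strains by barcode. Summing, across gates, the read frequency times the gate number gave each peptide's protein stability index.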

Row | Sequence | protein stability index (doa10∆) | protein stability index (pdr5∆) | protein stability index (san1∆) | protein stability index (ubr1∆)
1 | DVKLVLASNFDNFDYFN [MED1] | 3.17 ± 0.065 | 3.19 ± 0.068 | 3.2 ± 0.07 | 3.15 ± 0.056
2 | LPTVGFDFIKDNETPSK [YOR098C/NUP1] | 3.15 ± 0.093 | 3.2 ± 0.056 | 3.08 ± 0.068 | 3.27 ± 0.053
3 | LHPQLHEVQYQESSSTL [SIN4] | 2.28 ± 0.049 | 2.5 ± 0.041 | 2.41 ± 0.07 | 2.3 ± 0.035
4 | NAQDIDHFLSMCQNPMQ [FAS1] | 3.51 ± 0.23 | 2.84 ± 0.17 | – | –
5 | FYDYIKERSIVVGRTTR [REC8] | 1.9 ± 0.077 | 1.72 ± 0.064 | 1.22 ± 0.13 | 1.17 ± 0.045
6 | AMNDKDLTMGQVGERIK [RPO21] | 3.31 ± 0.17 | 3.26 ± 0.14 | 2.82 ± 0.13 | 3.08 ± 0.099
7 | NNDLESVSMLLQYYILE [RRI2] | 2.94 ± 0.047 | 3.16 ± 0.049 | 3.16 ± 0.034 | 3.122 ± 0.031
8 | TGLLIARRTLQKLGLDE [RPL5] | 3.2 ± 0.13 | 3.05 ± 0.17 | 3.39 ± 0.094 | 3.18 ± 0.16
9 | LQRDLFIRLPHWPLNWY [RGR1] | 2.05 ± 0.095 | 2.15 ± 0.061 | 2.11 ± 0.082 | 2.11 ± 0.076
10 | ISLAVEGEPVNSPNYFV [COR1] | 3.09 ± 0.14 | 2.43 ± 0.094 | 2.83 ± 0.12 | 1.99 ± 0.065
11 | YPDLCSIYDKWTDPNLK [RPN1] | 2.69 ± 0.091 | 2.66 ± 0.072 | 2.21 ± 0.11 | 2.93 ± 0.085
12 | ASPSAHTSSSDGNNEIF [RPN4] | 2.36 ± 0.063 | 2.73 ± 0.046 | 2.61 ± 0.067 | 3 ± 0.063
13 | LEEKILAKKTHKQELQD [SMC4] | 2.95 ± 0.093 | 3.21 ± 0.074 | 2.88 ± 0.072 | 2.85 ± 0.073
14 | ISPDPNLSIDEVAVPDR [RPO31] | 2.87 ± 0.089 | 2.76 ± 0.084 | 3.23 ± 0.069 | 2.95 ± 0.049
15 | TEKEEDAELMADEEEEI [ISW2] | 3.5 ± 0.18 | 3.38 ± 0.13 | 3.41 ± 0.083 | 3.34 ± 0.17
16 | VVSLKEGMFANANRVFR [SMC2] | 2.84 ± 0.071 | 3.11 ± 0.11 | 3.26 ± 0.06 | 3.18 ± 0.062
17 | LPIYDSLMSSQNKLFYI [SIR3] | 2.15 ± 0.14 | 2.01 ± 0.14 | – | 1.38 ± 0.093
18 | RSINNLIQEHDSRKNRE [BRN1] | 3.24 ± 0.065 | 3.37 ± 0.052 | 3.15 ± 0.043 | 3.38 ± 0.053
19 | NDKLIVDNDNWVYKTKG [RPN1] | 2.81 ± 0.14 | 2.77 ± 0.18 | 3.18 ± 0.28 | –
20 | NVLFLRLFNNVKIHSQE [SRP72] | 2.18 ± 0.049 | 2.06 ± 0.04 | 1.66 ± 0.061 | 2.08 ± 0.036
21 | VPTIGVVNSNFAKEHNA [YJR042W/NUP85] | 2.51 ± 0.072 | 2.61 ± 0.075 | 2.59 ± 0.058 | 2.54 ± 0.034
22 | EGKVTKLRRECSNPTCG [RPS31] | 3.31 ± 0.11 | 3.16 ± 0.089 | 3.18 ± 0.078 | 3.1 ± 0.083
23 | EGAEPGPPYTTDEHLIF [ISW2] | 2.91 ± 0.043 | 2.99 ± 0.047 | 2.42 ± 0.043 | 2.68 ± 0.037
24 | NKEGTLEQREQNENLPS [SSN2] | 3.02 ± 0.11 | 3.06 ± 0.074 | 3.09 ± 0.057 | 3.05 ± 0.057
25 | LGSKKELGISLEHPYGK [SNU114] | 3.08 ± 0.11 | 2.99 ± 0.13 | 3.1 ± 0.15 | 3.28 ± 0.088
26 | KSTYRTPNFDDVLKENN [RIP1] | 1.54 ± 0.087 | 1.45 ± 0.12 | 1.38 ± 0.14 | 2.1 ± 0.079
